For test [1], the target named is T1, human Clq (human, UniProt P02745 23-245; P02746 28-253; P02747 29-245).
T1 construct: also called Clq complement; C1q
Put plainly: ELISA, MAb coated on plate, human Clq in solution, detected with anti-human Clq peroxidase conjugate. As for the experimental part:
(§1) The Binding of Human Clq to MAbs was assessed by an ELISA binding assay. The 96-well plates (Nunc) were coated overnight at 4° C. with varying MAb concentrations. After washing, the plates were blocked with PBS-5% BSA for 1 h, and incubated for 1 h with 0.2 μg/ml of recombinant human Clq (Abd Serotec) or 2.5 μl of natural human complement (Sigma). Then, 100 μl of a 1/500 dilution of sheep anti-human Clq peroxidase-conjugated Ab (Abd Serotec) added and incubated for 1 h. The plates were developed with 100 μl per well of TMB substrate (Uptima Interchim). After H₂SO₄ addition, the OD was measured at 450 nm/630 nmusing a MRX II microplate reader.
(ELISA stands for enzyme-linked immunosorbent assay.)

The target of test [2] is T1, human Clq. The test is described as follows: ELISA, MAb coated on plate, human Clq in solution, detected with anti-human Clq peroxidase conjugate; chR007 Fc0 is the weaker reference. As to the method: as §1

T1 sequence (P02745 23-245 limits assumed, chain 1 of 3): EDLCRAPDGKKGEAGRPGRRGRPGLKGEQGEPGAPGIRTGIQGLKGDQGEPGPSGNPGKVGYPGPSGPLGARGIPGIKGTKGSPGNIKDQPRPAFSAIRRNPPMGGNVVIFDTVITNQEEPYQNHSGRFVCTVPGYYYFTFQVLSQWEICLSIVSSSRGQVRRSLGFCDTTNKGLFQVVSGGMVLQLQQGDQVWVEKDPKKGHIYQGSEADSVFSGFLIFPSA
T1 sequence (P02746 28-253 limits assumed, chain 2 of 3): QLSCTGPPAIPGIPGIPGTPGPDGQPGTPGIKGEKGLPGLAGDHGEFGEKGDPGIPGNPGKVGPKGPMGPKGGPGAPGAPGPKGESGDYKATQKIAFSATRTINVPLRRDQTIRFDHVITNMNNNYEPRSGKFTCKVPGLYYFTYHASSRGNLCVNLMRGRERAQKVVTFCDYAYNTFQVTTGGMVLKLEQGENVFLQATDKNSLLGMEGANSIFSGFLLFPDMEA
T1 sequence (P02747 29-245 limits assumed, chain 3 of 3): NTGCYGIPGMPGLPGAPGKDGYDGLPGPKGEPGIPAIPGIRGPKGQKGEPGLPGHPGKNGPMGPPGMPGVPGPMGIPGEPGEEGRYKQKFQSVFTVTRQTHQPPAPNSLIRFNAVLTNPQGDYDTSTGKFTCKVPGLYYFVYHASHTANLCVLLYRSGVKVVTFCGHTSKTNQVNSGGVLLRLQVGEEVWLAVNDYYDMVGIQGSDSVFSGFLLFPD

B1: humanized 7Hz116 Fc24 (antibody, human IgG1, kappa, V domains shown)
VH: EVQLVESGGGLVQPGGSLKLSCAASGFTFSNYWMHWVRQASGKGLEWVAEIRSKANSYATAYAASVKGRFTISRDDSKNTAYLQMNSLKTEDTAVYYCTRDWEFAYWGQGTLVTVSS
VL: DIVMTQSPDSLAVSLGERATINCKSSQSVDNYGSSSLAWYQQKPGQPPKLLIYRASNLDSGVPDRFSGSGSGTDFTLTISSVQAEDVAVYYCQQSNEDLPYTFGQGTKLEIKR
B1: the binding result in the test with human Clq [1] is “binds”.

B2: chR007 Fc24 (antibody, human IgG1, kappa)
heavy: EVKLEESGGGLVQPGGSMKLSCVASGFTFSNYWMNWVRQSPEKGLEWVAEIRLKSNNYATHYAESVKGRFTISRDDSRSSVYLQMNNLRAEDTGIYYCTRDWEFAYWGQGTLVTVSSASTKGPSVFPLAPSSKSTSGGTAALGCLVKDYFPEPVTVSWNSGALTSGVHTFPAVLQSSGLYSLSSVVTVPSSSLGTQTYICNVNHKPSNTKVDKKVEPKSCDKTHTCPPCPAPELLGGPSVFLLPPKPKDTLMISRTPEVTCVVVDVSHEDPEVKFNWYVDGVEVHNAKTKPPEEQYNSTLRVVSLLTVLHQDWLNGKEYKCKVSNAALPAPIAKTISKAKGQPREPQVYTLPPSRDELTKNQVSLTCLVKGFYPSDIAVEWESNGQPENNYKTTPLVLDSDGSFFLYSKLTVDKSRWQQGNVFSCSVMHEALHNHYTQKSLSLSPGK
light: DIVLTQSPASLAVSLGQRATISCRTSESVDNYGSSSMNWFQQKPGQPPKLLIYRASNLDSGIPARFSGSGSRSDFTLTINPVEADDVATYYCQQSNEDLPYTFGGGTKLEIKRTVAAPSVFIFPPSDEQLKSGTASVVCLLNNFYPREAKVQWKVDNALQSGNSQESVTEQDSKDSTYSLSSTLTLSKADYEKHKVYACEVTHQGLSSPVTKSFNRGEC
notes: also called chimeric chR007 Fc24
Regarding B2, in the test with human Clq [1], the binding result is “binds”.

B3: chR007 Fc0 (antibody, human IgG1, kappa)
heavy: not shown
light: DIVLTQSPASLAVSLGQRATISCRTSESVDNYGSSSMNWFQQKPGQPPKLLIYRASNLDSGIPARFSGSGSRSDFTLTINPVEADDVATYYCQQSNEDLPYTFGGGTKLEIKRTVAAPSVFIFPPSDEQLKSGTASVVCLLNNFYPREAKVQWKVDNALQSGNSQESVTEQDSKDSTYSLSSTLTLSKADYEKHKVYACEVTHQGLSSPVTKSFNRGEC
notes: Chimeric anti-CD5 IgG1 with native human IgG1 Fc; also called native chimeric MAb chR007 Fc0
In the case of B3, in the test with human Clq [2], the binding result is listed as “binds”.

The values are drawn from US20230159654A1 (INTERNATIONAL DRUG DEVELOPMENT BIOTECH, published 2023).
